Reference: PMC8769338 (PLoS Pathogens, 2022)
Several values for one entry are separate records, joined by “and”; a condition that tells them apart may be missing. Equal values may be shown once.

B1: JPU-G11 (VHH)
VHH: QLQLVETGGGLVQPGGSLRLACVASESVFEMYTVAWYRQAPGKQRELVAGITDEGRTNYADFVKGRFTISRDNSKKTVHLQMDNLNPEDTAVYYCKLEHDLGYYDYWGQGTQVTVSS
notes: form of the ELISAs; source: pET-32 vector, thioredoxin fusion, purified
B2: JND-B4 (VHH)
VHH: QVQLVETGGGLVQPGGSLRLSCVASGFTLDSYAIGWFRQAPGKEREGVSCMSSGDGSTYYTNSVKGRFTISRDNAQNTVYLQMNSLKPEDTAVYYCAADGFDYCSAYVPGRGMNYSGKGTLVTVSS
notes: source: pET-32 vector, thioredoxin fusion, purified
B3: JPU-C10 (VHH)
VHH: QLQLVESGGGLVQPGGSLRLSCAASGNIFSIYYMGWYRQAPGKQREMVAIINSNGITNYGDFVKGRFTISRDNAENSAYLQMNNLTPEDTAVYYCNAGKLRRTTGWGLDDYWGQGTQVTVSS
notes: as for B1
B4: BLc-B10 (VHH)
VHH: QLQLVESGGGMVQPGGSLRLSCAASGFTFSTYDMSWVRQAPGKGPEWVSIINAGGGSTYYAASVKGRFAISRDNAKNTLYLQMNNLKPEDTALYYCARVASYYCRGYVCSPPEFDYWGQGTQVTVSS
notes: as for B2
B5: JPU-A5 (VHH)
VHH: QVQLVETGGGLVQAGGSLRLSCTASGADFSFYAMGWYRQTPGNSRELVAVMNLNGVISYGDSARGRFDISRDGTKNIVFLQMNSLKPEDTGVYYCNGMRLYTRGSVRHPESWGQGIQVTVSS
notes: as for B1
B6: JLO-G7 (VHH)
VHH: QVQLVESGGGLVQAGGSLRLSCAASGFPFGSYYMSWVRQAPGKGPEWVSDISNGGIITRYSDSVKGRFTISRDNAKNILYLQMNSLKPEDTALYFCATGTGRDWSREYRGQGTQVTVSS
notes: as for B2
B7: JND-E5 (VHH)
VHH: QVQLVESGGLVQPGGSLRLSCAASGFTLDYYGIGWVRQAPGKEREEVSCITSGGLTNYPDSVKGRFTISRDNAKNTVYLQMNSLKPEDTAVYYCAIDRVGVCAMEDFGSWGQGTQVTVSS
notes: as for B2
B8: JND-E9 (VHH)
VHH: QVQLVETGGGLVQAGDSLRLSCAASGRTFNYYAMAWFRQAPGKEREFVAFINWSGDSTYYAGSVKGRFTISRDNAKNTVYLQMNNLKPEDTAVYSCAAEFGTFSYLQGDDYSYWGQGTQVTVSS
notes: as for B2
B9: ciA-D1 (VHH)
VHH: QVQLVESGGGLVQPGGSLRLSCATSGFTLEYYAIGWFRQAPGKGREGVACMNSSGGGTNYADSVKGRFTISRDNAKKMVYLQMNSLKSEDTAVYYCVVDDFRCGSRWAAYLRSSWGQGTQVTVSS
notes: as for B2

Experiments:
Settings in all cases: both partners purified
[1] = molecular target: LC/A1 (light chain protease domain of BoNT/A1), as used in the ELISAs of Table 1 (Clostridium botulinum, BoNT/A1, UniProt P0DPI0); experiment: ELISA
[2] = molecular target: T1, LC/B1 (light chain protease domain of BoNT/B1), as used in the ELISAs of Table 2 (Clostridium botulinum, BoNT/B1, UniProt P10844); experiment: ELISA
[3] = molecular target: LC/A2, strep-tag fusion protein (Clostridium botulinum, BoNT/A2 (strain …, UniProt Q45894, strain)); experiment: ELISA
[4] = molecular target: T1, LC/B1 (light chain protease domain of …); experiment: ELISA; dilution ELISA of VHH on LC/B coated to Nunc plastic

Binder	EC50 [2]	other results
B1	–	EC50 [1]: 1000 pM and 500 pM
B2	800 pM and 500 pM	–
B3	–	binding result [3]: binds
B4	5000 pM and 10000 pM	EC50 [4]: 300 pM
B5	–	binding result [3]: binds
B6	500 pM	–
B7	5000 pM and 2000 pM	–
B8	1000 pM and 500 pM	–
B9	–	EC50 [1]: 1000 pM and 400 pM
